# Laboratory results as given in PMC7940618, “Specific inhibition of the Survivin–CRM1 interaction by peptide-modified molecular tweezers” (Nature Communications, 2021).
# Peptide text beside a SMILES is read from it. * marks the point of attachment. X1 = O=C(Cn1cc(CCOP(=O)(O)Oc2c3c(c(OP(=O)(O)O)c4c2C2CC4c4cc5c(cc42)C2CC5c4ccccc42)C2CC3c3cc4c(cc32)C2CC4c3ccccc32)nn1)*; 5FAM = O=C1OC2(c3ccc(O)cc3Oc3cc(O)ccc32)c2ccc(C(=O)*)cc21
# Assays:
# Survivin120 K90/103T = target: T1, Survivin120 K90/103T (Homo sapiens, UniProt O15392, K103T/K90T); experiment: Fluorescence anisotropy binding of FAM-labeled tweezers to Survivin120 K90/103T
# T1 construct: the only published NMR structure originated from a truncated Survivin (aa 1-120) with improved solubility; GST with PreScission site (N); made in house; host or cells: Escherichia coli soluBL21
# Description: (§1) Fluorescence anisotropy was measured with a Jasco Spectrofluorometer FP-8300 in PBS buffer, pH 7.4, at 25 °C and data were collected with the software Spectra Manager™.
# (§2) For binding studies, FAM-labeled molecular tweezers (200 nM) were titrated with Survivin120 wildtype or K90/103T mutant until a final concentration of 180 µM (wildtype) or 350 µM (K90/103T) was reached. Data were normalized to the measured anisotropy A0 in the absence of protein. Using a single-site binding model, the fluorescence anisotropy data were fitted to the equation:3 y=A⋅L+x+KD−L+x+KD^2−4⋅x⋅L/2⋅L where A is the anisotropy at saturation, L is the concentration of the fluorescent ligand, x is the concentration of protein titrated, and KD is the dissociation constant.
# Survivin120 wildtype = target: T2, Survivin120 wildtype (Homo sapiens, UniProt O15392); experiment: Fluorescence anisotropy binding of FAM-labeled tweezers to Survivin120 wildtype
# T2 construct: the only published NMR structure originated from a truncated Survivin (aa 1-120) with improved solubility; GST with PreScission site (N); made in house; host or cells: Escherichia coli soluBL21
# Description: as §1, §2
# TW-ELTLGEFL-FAM (human) = experiment: fluorescence polarisation; fluorescence anisotropy; 200 nM FAM-labeled tweezer titrated with Survivin120 (to 180 µM) or K90/103T (to 350 µM); PBS pH 7.4, 25 °C; single-site model
# TW-ELTL-FAM (human) = experiment: as above
# [1] = target: TW-ELTLGEFL (asymmetrical molecular tweezer linked to the elongated peptide ELTLGEFL) (human); experiment: ITC; tweezer conjugate (100 µM) in the cell, Survivin120 (1.2 mM WT or 2.5 mM K90/103T) in the syringe; PBS pH 7.4, 25 °C; one set of sites model
# [2] = target: TW-ELTL (asymmetrical molecular tweezer linked to the short peptide ELTL) (human); experiment: as above
# [3] = target: TW-LFEEGLLT (scrambled peptide-modified tweezer); experiment: as above
# Survivin142-HA (human) = Survivin142-HA (human) (UniProt O15392); experiment: pull-down; competition in the pull-down of a5: 293T lysate with Survivin142-HA preincubated 1 h with 10 nM to 200 µM tweezer conjugate before GST-CRM1, RanQ69L and dGTP
# [4] = target: Atto488-labeled Survivin120 (human) (UniProt O15392); experiment: fluorescence polarisation; fluorescence anisotropy competition; Atto488-Survivin120 preincubated with CRM1_1-1062VLV430AAA at 1:5, titrated with tweezers to approx. 180 µM; PBS pH 7.4, 25 °C; n = 1
# Chain of Atto488-labeled Survivin120 (human) (O15392 1-120): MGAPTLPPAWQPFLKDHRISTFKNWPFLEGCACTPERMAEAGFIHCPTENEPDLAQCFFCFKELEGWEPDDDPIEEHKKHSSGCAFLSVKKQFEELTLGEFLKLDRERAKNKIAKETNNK
# T2 sequence (O15392 1-120): as above
# T1 sequence (O15392 1-120 K90T/K103T): as the sequence (O15392 1-120) above, with K90T, K103T counted along it
# Chain of Survivin142-HA (human) (O15392 whole entry): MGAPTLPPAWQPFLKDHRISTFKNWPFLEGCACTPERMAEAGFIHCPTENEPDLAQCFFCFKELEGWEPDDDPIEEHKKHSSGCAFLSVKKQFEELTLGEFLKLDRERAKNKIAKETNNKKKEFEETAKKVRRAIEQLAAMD
compound,measurement,setting,value
CC(C)C[C@H](NC(=O)[C@H](CCC(=O)O)NC(=O)Cn1cc(CCOP(=O)(O)Oc2c3c(c(OP(=O)(O)O)c4c2[C@H]2C[C@@H]4c4cc5c(cc42)[C@H]2C[C@@H]5c4ccccc42)[C@H]2C[C@@H]3c3cc4c(cc32)[C@H]2C[C@@H]4c3ccccc32)nn1)C(=O)N[C@H](C(=O)N[C@@H](CC(C)C)C(=O)N[C@@H](CCCCNC(=O)c1ccc2c(c1)C(=O)OC21c2ccc(O)cc2Oc2cc(O)ccc21)C(=O)NCC(=O)O)[C@@H](C)O [TW-ELTL-FAM],Kd,Survivin120 K90/103T,240 ± 20 µM
same,Kd,Survivin120 wildtype,26 ± 2 µM
CC(C)C[C@H](NC(=O)[C@H](Cc1ccccc1)NC(=O)[C@H](CCC(=O)O)NC(=O)CNC(=O)[C@H](CC(C)C)NC(=O)[C@@H](NC(=O)[C@H](CC(C)C)NC(=O)[C@H](CCC(=O)O)NC(=O)Cn1cc(CCOP(=O)(O)Oc2c3c(c(OP(=O)(O)O)c4c2C2CC4c4cc5c(cc42)C2CC5c4ccccc42)C2CC3c3cc4c(cc32)C2CC4c3ccccc32)nn1)[C@@H](C)O)C(=O)N[C@@H](CCCCNC(=O)c1ccc2c(c1)C(=O)OC21c2ccc(O)cc2Oc2cc(O)ccc21)C(=O)NCC(=O)O [TW-ELTLGEFL-FAM] (X1-ELTLGEFLK(5FAM)G-OH),Kd,Survivin120 K90/103T,92 ± 5 µM
same,Kd,Survivin120 wildtype,5 ± 0.5 µM
"Survivin120 (truncated Survivin, aa 1-120) (from UniProt O15392 1-120) (domain or fragment)",Kd,TW-ELTLGEFL-FAM (human),5 µM
same,Kd,TW-ELTL-FAM (human),26 µM
same,Kd,[1],19 µM
same,stoichiometry N (ligand/protein),[1],2
same,Kd,[2],24 µM
same,stoichiometry N (ligand/protein),[2],2
same,Kd,[3],68 µM
TW-ELTLGEFL (asymmetrical molecular tweezer linked to the elongated peptide ELTLGEFL),concentration effective in disrupting the Survivin–CRM1 complex,Survivin142-HA (human),1 to 10 µM
same,IC50,[4],12 µM
